Results reported in US20240369491A1.

B1: Cys-SBP (peptide)
peptide: CIEEQAKTFLDKFNHEAEDLFYQS
modifications: not checked
B2: Cys-SBP-PEG4 (peptide)
peptide: CIEEQAKTFLDKFNHEAEDLFYQS
modifications: not checked

Target: SARS-CoV-2 Spike RBD-His (Cat #: 40592-V08B) (SARS-CoV-2), P0DTC2

Binder | N:Au ratio (XPS) after RBD binding
B1 | 1.31
B2 | 1.45
